From the supplement of paper PMC9732359
± gives the uncertainty stated by the source.

Assay: protein stability index of a GFP-peptide fusion (yeast GPS) (PSI 1-4); higher = more stable; sorted into four equal gates, so the index is relative within each strain
How it was run: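 Plasmids isolated from each sorting gate were PCR-amplified and Illumina-sequenced, and barcodes assigned the reads to strains. The gates, four of equal size, were set by GFP/Cherry fluorescence ratio on mid-log cultures in leucine-free medium. These cultures were yeast carrying a pooled library of tiled 17-residue yeast protein peptides fused downstream of GFP on a plasmid that also expresses Cherry. The protein stability index is the sum of every gate's read frequency times its gate number.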

Row | Sequence | protein stability index (doa10∆) | protein stability index (pdr5∆) | protein stability index (san1∆) | protein stability index (ubr1∆)
1 | LLVERLKEDDSSLYEAS [RPN1] | 3.22 ± 0.12 | 3.38 ± 0.12 | 3.06 ± 0.1 | 3.16 ± 0.18
2 | LLVLLQDVIKVLYQSNA [SWP82] | 1.84 ± 0.074 | 2.03 ± 0.084 | 1.72 ± 0.12 | 1.7 ± 0.054
3 | LLVQKRFKYAPGTIVLY [RPS3] | 2.51 ± 0.12 | 1.87 ± 0.073 | 1.72 ± 0.13 | 1.31 ± 0.039
4 | LMLKKLKNSIMSFIFPS [YML031W/NDC1] | 2.21 ± 0.058 | 2.3 ± 0.066 | 2.28 ± 0.073 | 2.37 ± 0.062
5 | LMTKLNSFKLFKAEKLQ [RPC17] | 1.97 ± 0.059 | 1.88 ± 0.054 | 1.92 ± 0.06 | 1.75 ± 0.04
6 | LNAINNAEKTGKRQVLI [RPS22A] |  | 2.3 ± 0.26 |  | 
7 | LNARMFLKYYGAHKFLD [SIR2] | 1.89 ± 0.092 | 1.68 ± 0.097 | 1.21 ± 0.12 | 1.69 ± 0.066
8 | LNATTAMDLAQMLIQGV [BRR2] | 3.08 ± 0.18 | 1.68 ± 0.11 | 2.58 ± 0.094 | 1.55 ± 0.083
9 | LNDHIDDFEVNVASLVR [GRR1] | 3.29 ± 0.087 | 3.26 ± 0.13 | 2.31 ± 0.25 | 3.08 ± 0.087
10 | LNEAQGHIVSLELTTGA [SMD3] | 1.47 ± 0.053 | 1.9 ± 0.059 | 1.59 ± 0.14 | 1.85 ± 0.072
11 | LNEITNSKVNKLNIETM [DSN1] | 2.81 ± 0.16 | 2.9 ± 0.097 | 2.54 ± 0.077 | 3.08 ± 0.051
12 | LNGGLQFVPELKEFTAK [FAS2] | 2.75 ± 0.11 | 2.72 ± 0.11 | 2.3 ± 0.092 | 1.83 ± 0.064
13 | LNHVVSLIENKKAKLVL [RPL8B] | 2.46 ± 0.088 | 3.54 ± 0.17 | 2.98 ± 0.1 | 2.83 ± 0.1
14 | LNICRQCFREKANDIGF [RPS29A] | 2.8 ± 0.094 | 2.97 ± 0.12 | 3.07 ± 0.1 | 2.86 ± 0.11
15 | LNIDWSTTGDNGELDLS [MED2] | 2.2 ± 0.057 | 2.48 ± 0.058 | 2.13 ± 0.079 | 2.28 ± 0.044
16 | LNISGEFFRNKLKYHDF [RPL16A] | 1.32 ± 0.13 |  |  | 1.12 ± 0.1
17 | LNKDSTNEFVGSPSLTS [NUT1] | 2.96 ± 0.062 | 3.18 ± 0.057 | 2.93 ± 0.044 | 2.9 ± 0.042
18 | LNKFKKAIFQFVCRGMA [ECM29] | 2.06 ± 0.1 | 2.08 ± 0.071 | 2.6 ± 0.11 | 1.92 ± 0.052
19 | LNKSDLLDKYGKTGLSN [YML103C/NUP188] | 3.38 ± 0.12 | 3.17 ± 0.13 | 3.44 ± 0.058 | 3.38 ± 0.075
20 | LNNNNNNNNTTTTTTTT [SWI1] | 3.06 ± 0.062 | 3.27 ± 0.062 | 3.33 ± 0.081 | 3.22 ± 0.054
21 | LNSLTNLLSKRNQEKKM [SNM1] | 2.89 ± 0.078 | 2.86 ± 0.074 | 2.69 ± 0.083 | 2.7 ± 0.063
22 | LNTKSIQIDEETENSES [MCD1] | 2.16 ± 0.096 | 2.52 ± 0.11 | 2.87 ± 0.1 | 2.92 ± 0.1
23 | LNYTVINFKSREAIRPG [AAR2] | 3.07 ± 0.069 | 3.09 ± 0.068 | 3.15 ± 0.058 | 3.17 ± 0.042
24 | LPDELTLSYDDISAAIV [DLS1] | 2.56 ± 0.055 | 2.53 ± 0.061 | 2.58 ± 0.073 | 2.67 ± 0.05
25 | LPEKVNFRTMQQQQMQQ [SSN2] | 2.3 ± 0.18 | 2.75 ± 0.18 | 2.46 ± 0.19 | 2.38 ± 0.14
26 | LPFQRLVREIAQDFKTD [HHT1] | 1.93 ± 0.066 | 2.48 ± 0.061 | 2.48 ± 0.073 | 2.35 ± 0.074
27 | LPKAWISLAVEGEPVNS [COR1] | 1.38 ± 0.12 | 2.1 ± 0.14 | 2.84 ± 0.14 | 1.79 ± 0.1
